Laboratory results: patent US20220024975A1 (ARROWHEAD PHARMACEUTICALS, published 2022)
Where “and” joins values, the source holds several entries; their conditions need not be identical. Equal entries are not always repeated. Non-standard residues stand in square brackets, D forms with d. No end group written: not given here. *: point of attachment. MeO‑PEG8 = N-terminal cap, methoxy-PEG with 8 ethylene glycol units; guanidinyl = N-terminal guanidinyl cap, N=C(N)*; Pentanoyl(5-guanidino) = NC(N)=NCCCCC(=O)*; Cha = N[C@@H](CC1CCCCC1)C(=O)O; Cit = NC(=O)NCCC[C@H](N)C(=O)O; Agp = N=C(N)NC[C@H](N)C(=O)O; Abu = CC[C@H](N)C(=O)O; Aib = CC(C)(N)C(=O)O; Sar = CNCC(=O)O

Columns and labels:
αvβ6 integrin [1] = biological target: T1, αvβ6 integrin (human, UniProt P06756 31-1048; P18564 22-788); assay: flow cytometry, Cy5-polymer conjugate 5 µg/ml, H2009 cells
T1 construct: whole, on cells; target is the endogenous integrin on αvβ6 positive-control cell lines; also called Integrin alpha-v beta-6
T1 sequence (P06756 31-1048, chain 1 of 2): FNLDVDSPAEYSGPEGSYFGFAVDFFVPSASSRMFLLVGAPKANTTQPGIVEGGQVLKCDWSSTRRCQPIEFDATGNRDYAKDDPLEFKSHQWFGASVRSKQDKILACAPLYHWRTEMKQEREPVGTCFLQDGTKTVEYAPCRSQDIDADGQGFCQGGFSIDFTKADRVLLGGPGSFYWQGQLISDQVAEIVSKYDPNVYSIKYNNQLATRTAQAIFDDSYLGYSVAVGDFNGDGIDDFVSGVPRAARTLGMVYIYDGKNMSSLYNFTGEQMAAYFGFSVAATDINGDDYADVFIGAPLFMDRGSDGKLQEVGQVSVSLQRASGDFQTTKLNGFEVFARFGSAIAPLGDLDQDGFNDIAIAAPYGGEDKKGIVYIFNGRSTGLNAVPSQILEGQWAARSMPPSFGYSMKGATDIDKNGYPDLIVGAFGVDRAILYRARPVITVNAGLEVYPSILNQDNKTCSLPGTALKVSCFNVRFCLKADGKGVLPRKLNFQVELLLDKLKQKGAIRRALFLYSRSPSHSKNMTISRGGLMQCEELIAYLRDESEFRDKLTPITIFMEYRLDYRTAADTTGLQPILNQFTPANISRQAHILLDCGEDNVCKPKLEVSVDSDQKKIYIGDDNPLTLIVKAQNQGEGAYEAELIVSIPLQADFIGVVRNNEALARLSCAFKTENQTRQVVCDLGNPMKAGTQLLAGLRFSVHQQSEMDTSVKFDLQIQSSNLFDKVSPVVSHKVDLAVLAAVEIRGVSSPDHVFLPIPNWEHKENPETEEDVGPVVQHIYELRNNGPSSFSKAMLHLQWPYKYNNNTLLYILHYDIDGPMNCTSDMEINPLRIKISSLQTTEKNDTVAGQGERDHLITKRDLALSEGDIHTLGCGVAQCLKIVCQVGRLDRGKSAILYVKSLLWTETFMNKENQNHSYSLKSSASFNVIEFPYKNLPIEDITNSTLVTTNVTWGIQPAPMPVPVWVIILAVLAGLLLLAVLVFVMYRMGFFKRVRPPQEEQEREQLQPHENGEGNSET
T1 sequence (P18564 22-788, chain 2 of 2): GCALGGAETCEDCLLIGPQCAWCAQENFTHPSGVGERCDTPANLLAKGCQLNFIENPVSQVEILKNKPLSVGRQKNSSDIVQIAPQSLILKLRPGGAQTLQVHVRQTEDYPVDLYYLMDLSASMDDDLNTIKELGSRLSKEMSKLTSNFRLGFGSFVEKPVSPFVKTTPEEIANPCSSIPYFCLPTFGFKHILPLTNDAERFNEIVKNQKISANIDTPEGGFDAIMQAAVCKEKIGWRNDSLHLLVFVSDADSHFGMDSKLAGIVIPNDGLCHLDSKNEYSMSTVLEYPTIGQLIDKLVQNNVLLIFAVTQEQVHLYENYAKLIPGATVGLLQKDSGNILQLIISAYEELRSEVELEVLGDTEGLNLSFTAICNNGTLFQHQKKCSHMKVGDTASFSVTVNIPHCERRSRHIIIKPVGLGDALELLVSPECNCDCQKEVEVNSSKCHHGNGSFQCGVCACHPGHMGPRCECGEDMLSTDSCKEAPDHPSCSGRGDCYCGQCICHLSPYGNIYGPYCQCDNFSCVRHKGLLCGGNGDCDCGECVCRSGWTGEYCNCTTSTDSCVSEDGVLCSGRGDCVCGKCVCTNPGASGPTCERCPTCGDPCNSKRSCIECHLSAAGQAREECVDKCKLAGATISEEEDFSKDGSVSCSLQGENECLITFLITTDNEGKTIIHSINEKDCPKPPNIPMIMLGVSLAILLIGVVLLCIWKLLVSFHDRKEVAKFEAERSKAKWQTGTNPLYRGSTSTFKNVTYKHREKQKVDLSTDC
Text: (§1) B. αvβ6 ligand binding (flow cytometric analyses). To assess for specificity of binding of the αvβ6 ligands to the αvβ6 integrin, each αvβ6 ligand or negative control peptide was conjugated to a Cy5-labeled polymer (as described above) and evaluated for binding to cells. […] H2009 (human lung epithelial adenocarcinoma) and CAPAN-2 (human pancreas adenocarcinoma) cells served as the αvβ6 positive-control cell lines. Cells were detached from culturing flasks with Accutase, washed in PBS, and seeded into 5 ml polystyrene round-bottom tubes at 200,000 cells in 200 μl complete media (culturing media with supplements and fetal calf serum). αvβ6 ligand-polymer conjugates or no-ligand-polymer conjugates were added at 5 μg/ml (polymer-Cy5 concentration) to cells, mixed and incubated at 37° C. for 3 h. Incubation at 37° C. facilitated ligand/receptor interaction which may result in static binding to the extracellular cell surface and/or internalized ligand/receptor complexes. The mixture was re-suspended at 1 h intervals. Following a 3 h incubation, cells were washed 2× with 4 ml chilled buffer (PBS-2% FCS) and re-suspended in 200 μl buffer containing 10 μM SYTOX blue stain for live/dead cell gating. Samples were analyzed on a BD Biosciences Canto II cytometer equipped with a violet (405 nm), blue (488 nm) and red (633 nm) lasers.
(§2) Viable cells were initially gated as the SYTOX blue negative population on the C detector with the violet laser. These viable cells were then assessed for conjugate binding/uptake with the red laser as the Mean Fluorescence Intensity (MFI) of the Cy5 fluorophore. Data analyses were performed with FlowJo v10.1 software. A specific MFI Ratio (sMFIr) for each αvβ6 ligand was determined by the formula: […]

αvβ6 integrin [2] = biological target: T1, αvβ6 integrin; assay: flow cytometry, Cy5-polymer conjugate 5 µg/ml, CAPAN-2 cells
αvβ6 integrin [3] = biological target: T1, αvβ6 integrin; assay: flow cytometry, Cy5-polymer conjugate on H2009 / CAPAN-2 cells
Text: as §1, with “Incubation at 37° C. facilitated ligand/receptor interaction which may result in static binding to the extracellular cell surface and/or internalized ligand/receptor complexes. The mixture was re-suspended at 1 h intervals. Following a 3 h incubation, cells were washed 2× with 4 ml chilled buffer (PBS-2% FCS) and re-suspended in 200 μl buffer containing 10 μM SYTOX blue stain for live/dead cell gating.” left out
as §2, with “Data analyses were performed with FlowJo v10.1 software.” left out

Row | Molecule | MFI (specific MFI ratio, sample/no-ligand) (αvβ6 integrin [1]) | MFI (specific MFI ratio, sample/no-ligand) (αvβ6 integrin [2]) | binding result (αvβ6 integrin [3])
1 | Ac-RGDLA[Abu]LE[Aib] | 1.9 | – | –
2 | Ac-RGDL[Cha]TLRQL | 5.1 | – | –
3 | Ac-RGDLG[Abu]L[Cit][Aib] | 3.7 | – | –
4 | Ac-RGDLE[Abu]L[Cit][Aib] | 2.6 | – | –
5 | CH3CH2-RGDLAAbuLCitAib (peptide) | 4.4 | – | –
6 | Ac-RGDLAEL[Cit][Aib] | 2.4 | – | –
7 | Ac-RGDLA[Abu]LRQL | 6.47 | – | –
8 | Ac-RGDLβ3-hATLRQL (peptide) | 4.5 | – | –
9 | Ac-RGDLAGL[Cit][Aib] | 3.8 | – | –
10 | Ac-RGDLA[Abu]L[Cit]E | 4 | – | –
11 | Ac-RGDL[Cha][Abu]L[Cit][Aib] | 1.6 | – | –
12 | Ac-RGDLA[Abu]L[Cit][Aib] | 4.7 and 3.8 | – | –
13 | CH3(CH2)3CO-RGDLAAbuLCitAib (peptide) | 4.1 | – | –
14 | Ac-RGDLATL[Cit]QL | 3.94 | – | –
15 | Ac-RGDLQ[Abu]L[Cit][Aib] | 3.7 | – | –
16 | Ac-RGDLA[Abu]LF[Aib] | 3.6 | – | –
17 | CH3(CH2)4-RGDLAAbuLCitAib (peptide) | 4.1 | – | –
18 | Ac-RGDLA[Abu]LK[Aib] | 5.4 | – | –
19 | Ac-RGDLA[Abu]LQ[Aib] | 4.4 | – | –
20 | CH3O(CH2CH2O)1CH2CH2CO-RGDLAAbuLCitAib (peptide) | 3.8 | – | –
21 | CH3(CH2)1CO-RGDLAAbuLCitAib (peptide) | 4.2 | – | –

Row | Molecule | MFI (specific MFI ratio, sample/no-ligand) (αvβ6 integrin [1]) | MFI (specific MFI ratio, sample/no-ligand) (αvβ6 integrin [2]) | binding result (αvβ6 integrin [3])
22 | CH3O(CH2CH2O)5CH2CH2CO-RGDLAAbuLCitAib (peptide) | 1.6 | – | –
23 | Ac-RGDLAPL[Cit][Aib] | 2.8 | – | –
24 | RGDLA[Abu]L[Cit][Aib]L | 4.6 | – | –
25 | CH3(CH2)4CO-RGDLAAbuLCitAib (peptide) | 3.9 | – | –
26 | Ac-RGDαMeLAAbuLCitAib (peptide) | 0.8 and 1 | 0.9 | –
27 | Ac-RGDLA[Abu]LP[Aib] | 1.6 | – | –
28 | Ac-RGDLA[Abu]L[Cit]F | 3.7 | – | –
29 | Ac-RGDL[Aib]TLRQL | 4 | – | –
30 | Ac-R[Sar]DLA[Abu]L[Cit][Aib] | 2.6 | – | –
31 | Ac-RGDLA[Abu]L[Cit][Aib]L | 3.2 and 4.55 and 4.6 | 7.7 | –
32 | Ac-RGDLβ3-hAAbuLCitAib (peptide) | 2.34 | – | –
33 | [Pentanoyl(5-guanidino)]GDLATLRQL (not fully specified (C-terminus); printed as des-amino-RGDLATLRQL; also: HyNic conjugated to Cy5-labelled 1170-100B polymer) [des-amino-…] | 1.1 | – | –
34 | RGDLATLRQLEEEK(HyNic) (also: conjugated via HyNic to Cy5-labelled 1170-100B polymer, places HyNic at (1)..(1) as C-terminal, Conjugated to Cy5-labelled 1170-100B polymer; printed with its own K-(HyNic)) [RGDLATLRQLEEEK-(HyNic)] | 6.5 ratio | – | –
35 | {MeO‑PEG8}-RGDLATLRQL (not fully specified; printed as MeO-PEG8-RGDLATLRQL, Tested as ligand-(PEG)8-K-HyNic conjugated to Cy5-labelled 1170-100B polymer) [MeO-PEG8-RGDLATLRQL] | 2.5 ratio | – | –
36 | Ac-RGDLATLRQL (not fully specified; printed as Ac-RGDLATLRQL, Tested as ligand-(PEG)8-K-HyNic conjugated to Cy5-labelled 1170-100B polymer) [Ac-RGDLATLRQL] | 4.7 ratio | – | –
37 | guanidinyl-RGDLATLRQL (not fully specified; printed as Guanidinyl-RGDLATLRQL, Tested as ligand-(PEG)8-K-HyNic conjugated to Cy5-labelled 1170-100B polymer) [Guanidinyl-RGDLATLRQL] | 4.3 ratio | – | –
38 | [Agp]GDLATLRQL (not fully specified; printed as Dap(guanidino)-GDLATLRQL, Tested as ligand-(PEG)8-K-HyNic conjugated to Cy5-labelled 1170-100B polymer) [Dap(guanidino)-GDLATLRQL] | 3.4 ratio | – | –
39 | RGDLAT (not fully specified, Tested as ligand-(PEG)8-K-HyNic conjugated to Cy5-labelled 1170-100B polymer) | 1.3 ratio | – | –
40 | Ac-RGDLAILRQL (not fully specified; printed as Ac-RGDLAILRQL, Tested as ligand-(PEG)8-K-HyNic conjugated to Cy5-labelled 1170-100B polymer) [Ac-RGDLAILRQL] | 6.22 ratio | – | –
41 | Ac-RGDLALLRQL (not fully specified; printed as Ac-RGDLALLRQL, Tested as ligand-(PEG)8-K-HyNic conjugated to Cy5-labelled 1170-100B polymer) [Ac-RGDLALLRQL] | 6.06 ratio | – | –
42 | RGDLATL (not fully specified, Tested as ligand-(PEG)8-K-HyNic conjugated to Cy5-labelled 1170-100B polymer; also called natural peptide) | 2.9 ratio | – | –

Continued, in another order:

Row | MFI (specific MFI ratio, sample/no-ligand) (αvβ6 integrin [1]) | MFI (specific MFI ratio, sample/no-ligand) (αvβ6 integrin [2]) | Molecule | binding result (αvβ6 integrin [3])
43 | 2.7 | – | Ac-RGDLF[Abu]L[Cit][Aib] | –
44 | 3.7 | – | CH3O(CH2CH2O)3CH2CH2CO-RGDLAAbuLCitAib (peptide) | –
45 | 3.6 | – | Ac-RGDLK[Abu]L[Cit][Aib] | –
46 | 4 | – | Ac-RGDLA[Abu]L[Cit]P | –
47 | 5.2 | – | Ac-RGDLA[Abu]L[Cit]K | –
48 | 1.3 | – | Ac-RGDLAAbuNMeLCitAib (peptide) | –
49 | 4.3 | – | CH3(CH2)2CO-RGDLAAbuLCitAib (peptide) | –
50 | 3.6 | – | CH3O(CH2CH2O)2CH2CH2CO-RGDLAAbuLCitAib (peptide) | –
51 | 4.7 | – | CH3(CH2)3-RGDLAAbuLCitAib (peptide) | –
52 | 4.8 | – | Ac-RGDLA[Abu]L[Cit]G | –
53 | 2 | – | Ac-RGDLAFL[Cit][Aib] | –
54 | 0.99 | – | Ac-[Cit]GDLATL[Cit]QL | –
55 | 1 | – | Ac-RGDNMeLAAbuLCitAib (peptide) | –
56 | 0.9 and 1 | 1 | Ac-RGαMeDLAAbuLCitAib (peptide) | –
57 | 1 | – | Ac-RGDLP[Abu]L[Cit][Aib] | –
58 | 3.2 | 8.9 | Ac-RGDLA[Abu]L[Aib] | –
59 | 4 | – | Ac-RGDLA[Abu]LG[Aib] | –
60 | 3.3 | – | Ac-RGDLA[Abu]L[Cit] | –
61 | 2.6 | 7.9 | Ac-RGDLA[Abu]L | –
62 | 4.4 | – | Ac-RGDLA[Abu]L[Cit]Q | –
63 | 3.9 | – | CH3(CH2)2-RGDLAAbuLCitAib (peptide) | –
64 | 3.6 | – | Ac-RGDLAKL[Cit][Aib] | –
65 | 3.6 | – | Ac-RGDLAQL[Cit][Aib] | –
66 | 4.7 ratio | – | RGDLATLRQ (not fully specified, Tested as ligand-(PEG)8-K-HyNic conjugated to Cy5-labelled 1170-100B polymer) | –
67 | 4.8 ratio | – | Me-RGDLATLRQL (not fully specified; printed as Me-RGDLATLRQL, Tested as ligand-(PEG)8-K-HyNic conjugated to Cy5-labelled 1170-100B polymer) [Me-RGDLATLRQL] | –
68 | 6.23 ratio | – | Ac-RGDLAVLRQL (not fully specified; printed as Ac-RGDLAVLRQL, Tested as ligand-(PEG)8-K-HyNic conjugated to Cy5-labelled 1170-100B polymer) [Ac-RGDLAVLRQL] | –
69 | 0.99 ratio | – | RGELATLRQL (not fully specified; printed as RGELATLRQL (RGE control), Negative control; Tested as ligand-(PEG)8-K-HyNic conjugated to Cy5-labelled 1170-100B polymer) [RGELATLRQL (RGE control)] | no binding (tested: 5 µg/ml (polymer-Cy5 concentration))
